Here are results for 1 molecule from article PMC9257163, “Fluorescence Detection of Cancer Stem Cell Markers Using a Sensitive Nano-Aptamer Sensor”.

One series addresses T1, CD133 (prominin-1) (UniProt O43490 20-865).
T1 sequence: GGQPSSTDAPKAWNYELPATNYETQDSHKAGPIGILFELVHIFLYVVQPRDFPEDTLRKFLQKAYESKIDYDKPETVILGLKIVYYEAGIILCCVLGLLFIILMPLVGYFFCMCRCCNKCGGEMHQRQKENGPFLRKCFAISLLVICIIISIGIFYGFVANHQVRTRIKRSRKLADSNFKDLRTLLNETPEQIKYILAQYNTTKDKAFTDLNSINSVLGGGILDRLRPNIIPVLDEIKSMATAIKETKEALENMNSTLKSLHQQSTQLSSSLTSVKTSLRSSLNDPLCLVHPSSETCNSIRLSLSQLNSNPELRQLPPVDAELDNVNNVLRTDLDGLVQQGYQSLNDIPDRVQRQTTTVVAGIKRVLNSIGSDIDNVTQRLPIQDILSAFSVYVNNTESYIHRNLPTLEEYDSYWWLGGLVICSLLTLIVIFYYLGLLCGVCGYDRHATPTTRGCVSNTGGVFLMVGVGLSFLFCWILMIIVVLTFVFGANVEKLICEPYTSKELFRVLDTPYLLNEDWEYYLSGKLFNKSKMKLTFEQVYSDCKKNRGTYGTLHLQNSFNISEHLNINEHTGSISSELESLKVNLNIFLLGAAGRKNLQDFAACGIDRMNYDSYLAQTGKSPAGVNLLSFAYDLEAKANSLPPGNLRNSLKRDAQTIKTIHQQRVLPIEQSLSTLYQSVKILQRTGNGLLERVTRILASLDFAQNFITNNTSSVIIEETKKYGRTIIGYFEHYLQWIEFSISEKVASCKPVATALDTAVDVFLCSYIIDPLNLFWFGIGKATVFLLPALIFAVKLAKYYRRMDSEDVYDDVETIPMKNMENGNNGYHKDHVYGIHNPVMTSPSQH
The series is described as follows: competition (FRET turn-on displacement of AuNPs-ssRNA); 0-1.539 uM CD133, 5 nM QD-aptamer; maximum recovery 68%; LOD 6.99 nM (not a Kd); QD-aptamers redispersed in PBS; sensor annealed from 95 °C to room temperature; binding buffer, pH and temperature not stated in the material. The following applies: label: CdSe/ZnS QD on aptamer 5' end; AuNP (25 nm) on ssRNA 5' end; partially complementary RNA duplex; about 7 aptamers per QD; ssRNA displaced by protein.

A further series deals with EGFR (UniProt P00533 25-645). The series is described as follows: competition (FRET turn-on displacement of AuNPs-ssRNA); 2 uM protein; QD-aptamers redispersed in PBS; sensor annealed from 95 °C to room temperature; binding buffer, pH and temperature not stated in the material. The following applies: chain copies: 2; label: CdSe/ZnS QD on aptamer 5' end; AuNP (25 nm) on ssRNA 5' end; partially complementary RNA duplex; about 7 aptamers per QD; ssRNA displaced by protein.

A further series deals with TGF-β1 (UniProt P01137 279-390). The description is as above. To be noted: chain copies: 2; label: CdSe/ZnS QD on aptamer 5' end; AuNP (25 nm) on ssRNA 5' end; partially complementary RNA duplex; about 7 aptamers per QD; ssRNA displaced by protein.
Another series deals with T2, IL-1α (UniProt P01583 113-271).
T2 sequence: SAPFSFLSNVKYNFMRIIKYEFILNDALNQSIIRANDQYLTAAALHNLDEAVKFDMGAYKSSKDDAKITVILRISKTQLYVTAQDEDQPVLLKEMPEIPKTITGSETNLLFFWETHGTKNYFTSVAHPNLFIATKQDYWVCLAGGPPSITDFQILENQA
The description is as above. The following applies: label: CdSe/ZnS QD on aptamer 5' end; AuNP (25 nm) on ssRNA 5' end; partially complementary RNA duplex; about 7 aptamers per QD; ssRNA displaced by protein.

Sequence of TGF-β1 (P01137 279-390): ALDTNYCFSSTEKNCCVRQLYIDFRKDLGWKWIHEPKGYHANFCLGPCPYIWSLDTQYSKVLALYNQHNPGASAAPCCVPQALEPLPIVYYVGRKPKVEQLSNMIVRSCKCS

B1: CD133 aptamer sensor (QD-aptamer hybridized to AuNPs-ssRNA) (mixed)
RNA 1: CCCUCCUACAUAGGG
RNA 2: CCCUAUG
modifications: 5'-NH2 on aptamer; 5'-SH on ssRNA
Take B1: the binding result in the series with CD133 (prominin-1) was “binds”; with EGFR, “no binding”; in the series with TGF-β1 it was “no binding”; with IL-1α, “no binding”.
